The assay addresses human C-KIT-Fc protein (human) (UniProt P10721). As to the kind of experiment: direct ELISA, IgG at 1 µg/ml. (In general: In an ELISA, binding on a coated surface is turned into a signal by an enzyme label.)

Some results are limits rather than exact numbers.

B1: E-C2 (antibody, human IgG1, V domains shown)
VH: QVQLVQSGAEVKKPGASVKVSCKASGYTFTDYYMNWVRQAPGQGLEWMGRIYPGSGNTYYAQKFQGRVTMTRDTSTSTVYMELSSLRSEDTAVYYCARGVYYLDYWGQGTLVTVSS
VL: DIQMTQSPSSLSASVGDRVTITCRASQGIRTNVAWLQQKPGKAPKSLIYSASYRQSGVPSRFSGSGSGTDFTLTISSLQPEDFATYYCQQYNSYPRTFGGGTKVEIK
In turn, B1 had an OD450 nm greater than 1.8 OD450 nm.

B2: MH1 IgG1 (antibody, V domains shown)
VH: QVQLVQSGAEVKKPGASVKVSCKASGYTFTDYYMNWVRQAPGQGLEWMGRIYPGSGNTYYAQKFQGRVTMTRDTSTSTVYMELSSLRSEDTAVYYCARGVYYYDYWGQGTLVTVSS
VL: DIQMTQSPSSLSASVGDRVTITCRASQGIRTNLAWFQQKPGKAPKSLIYAASSLQSGVPSRFSGSGSGTDFTLTISSLQPEDFATYYCQQYNSYPRTFGGGTKVEIK
B2 returned an OD450 nm greater than 1.8 OD450 nm.
